# Publication PMC11349869
# Substrate: O=C(O)O
# Assay: cells, lysate or membranes
# Settings: pH 7.5, 20 mM bis-tris propane-H2SO4, 0.5 mM glucose, 1 µM CaCl2, induced with 100 µM IPTG, labelled compound
row,Protein,Km [µM]
1,BCT1 CmpCD fusion (GN128) (Synechococcus elongatus PCC 7942 = FACHB-805) (protein) chain 1: CGNPPSSSGGGTSSTTQPTAAGASDLEVKTIKLGYIPIFEAAPLIIGREKGFFAKYGLDVEVSKQASWAAARDNVILGSAGGGIDGGQWQMPMPALLTEGAISNGQKVPMYVLACLSTQGNGIAVSNQLKAQNLGLKLAPNRDFILNYPQTSGRKFKASYTFPNANQDFWIRYWFAAGGIDPDKDIELLTVPSAETLQNMRNGTIDCFSTGDPWPSRIAKDDIGYQAALTGQMWPYHPEEFLALRADWVDKHPKATLALLMGLMEAQQWCDQKANRAEMAKILSGRNFFNVPVSILQPILEGQIKVGADGKDLNNFDAGPLFWKSPRGSVSYPYKGLTLWFLVESIRWGFNKQVLPDIAAAQKLNDRVTREDLWQEAAKKLGVPAADIPTGSTRGTETFFDGITYNPDSPQAYLQSLKIKRA chain 2: MVTARETRRNGSRPSGLKKWRQKLDGILLPLAGILGFLIIWQIFSSSGATRLPGPLSLFTEERTRELLLYPFLDRGGLDKGLFWQTIASLTRVAQGFSIAAIIGISVGILVGLNRQLNAMLDPLFQFLRMIAPLAWVPIALVAFQQNQPAAIFVIFITAVWPILINTAEGVRQIPQDYNNVARVLRMSKSKYLMKVVLPAALPYIFTGLRIAIGLSWLAIIAAEIVMSGIVGIGFFIWDAYQQNYVSDIILAVIYIGAVGLLLDRFVAWLQRWILRNM,120 ± 20
2,BCT1 CmpCD fusion with tags (GM319) (Synechococcus elongatus PCC 7942 = FACHB-805) (protein) chain 1: CGNPPSSSGGGTSSTTQPTAAGASDLEVKTIKLGYIPIFEAAPLIIGREKGFFAKYGLDVEVSKQASWAAARDNVILGSAGGGIDGGQWQMPMPALLTEGAISNGQKVPMYVLACLSTQGNGIAVSNQLKAQNLGLKLAPNRDFILNYPQTSGRKFKASYTFPNANQDFWIRYWFAAGGIDPDKDIELLTVPSAETLQNMRNGTIDCFSTGDPWPSRIAKDDIGYQAALTGQMWPYHPEEFLALRADWVDKHPKATLALLMGLMEAQQWCDQKANRAEMAKILSGRNFFNVPVSILQPILEGQIKVGADGKDLNNFDAGPLFWKSPRGSVSYPYKGLTLWFLVESIRWGFNKQVLPDIAAAQKLNDRVTREDLWQEAAKKLGVPAADIPTGSTRGTETFFDGITYNPDSPQAYLQSLKIKRA chain 2: MVTARETRRNGSRPSGLKKWRQKLDGILLPLAGILGFLIIWQIFSSSGATRLPGPLSLFTEERTRELLLYPFLDRGGLDKGLFWQTIASLTRVAQGFSIAAIIGISVGILVGLNRQLNAMLDPLFQFLRMIAPLAWVPIALVAFQQNQPAAIFVIFITAVWPILINTAEGVRQIPQDYNNVARVLRMSKSKYLMKVVLPAALPYIFTGLRIAIGLSWLAIIAAEIVMSGIVGIGFFIWDAYQQNYVSDIILAVIYIGAVGLLLDRFVAWLQRWILRNM,170 ± 30
